# According to article PMC4255369, “Identification of structural determinants on tau protein essential for its pathological function: novel therapeutic target for tau immunotherapy in Alzheimer’s disease” (Alzheimer's Research & Therapy, 2014):
# T1: tau 268–273 (6-mer peptide from MTBR1) (Homo sapiens)
# T1 construct: numbers count on: the longest human tau isoform (2N4R); also called HQPGGG; source: synthetic peptide, bought: EZBiolab (>95% purity)
# T1 chain: HQPGGG
# T2: tau 330–335 (6-mer peptide from MTBR3) (Homo sapiens)
# T2 construct: human tau residues 330-335; numbers count on: the longest human tau isoform (2N4R); also called HKPGGG; source: synthetic peptide, bought: EZBiolab (>95% purity)
# T2 chain: HKPGGG
# T3: tau 299–304 (6-mer peptide from MTBR2, identical to tau 362–367 from MTBR4) (Homo sapiens)
# T3 construct: numbers count on: the longest human tau isoform (2N4R); source: synthetic peptide, bought: EZBiolab (>95% purity)
# T3 chain: HVPGGG
# B1: monoclonal antibody DC8E8 (antibody, V domains shown)
# VH: QVQLQQSGPELVKPGTSVKMPCKASGYIFTDYVISWVKQRTGQGLEWIGEIFPRSGSTYYNEKFKGKATLTADKSSNTAYMQLSSVTSEDSAVYFCARDYYGTSFAMDYWGQGTSVTVSS
# VL: DIVMSQSPSSLAVSAGEKVTMSCKSSQSLLNSRTRKNYLAWYQQKPGQSPKLLIYWASTRESGVPDRFTGSGSGTDFTLTISSVQAEDLAVYYCKQSFYLRTFGGGTKLDIK
# notes: the Fab of DC8E8 is deposited as PDB 4OZ4 (heavy chain of the Fab); the Fab of DC8E8 is deposited as PDB 4OZ4 (light chain); The crystal structure (4OZ4) is of the papain Fab without antigen; also called mAb DC8E8; source: mouse hybridoma (Balb/c spleen cells fused with NS0); hybridoma culture supernatant (indirect ELISA); purified antibody (protein G Sepharose)
# Tests used:
# Conditions in all cases: both partners purified
# [1] = molecular target: T1, tau 268–273 (6-mer peptide from MTBR1); assay: ELISA; competitive ELISA; plates coated with 250 ng/well purified tau 151-391/4R; DC8E8 0.6 μg/ml (3.8 nM), 60 μl mixed with 40 μl of 200 μM peptide, 1 hour at 25°C, then 1 hour at 25°C on the plate
# [2] = molecular target: T2, tau 330–335 (6-mer peptide from MTBR3); assay: as above
# [3] = molecular target: T3, tau 299–304 (6-mer peptide from MTBR2, …); assay: as above
# [4] = molecular target: T4, mis-disordered tau protein 151-391/4R (human, UniProt P10636-8); assay: SPR; Biacore 3000, CM5; DC8E8 captured (230 to 250 RU) by coupled polyclonal anti-mouse antibody; twofold serial dilutions of tau proteins injected at 50 μl/min; 25°C, PBS pH 7.4 with 0.005% P20; fitted to a two-phase reaction model
# T4 construct: numbers count on: the longest human tau isoform (2N4R); source: purified
# [5] = molecular target: T5, mis-disordered tau 151-391/3R (Homo sapiens, UniProt P10636-5); assay: as above
# T5 construct: numbers count on: the longest human tau isoform (2N4R); also called three-repeat mis-disordered truncated tau protein
# [6] = molecular target: T6, human tau protein isoform 2N4R (Homo sapiens, isoform 2N4R (Tau-F, 441 …, UniProt P10636-8)); assay: as above
# T6 construct: human tau, longest isoform 2N4R (four repeats, two N-terminal inserts); also called full-length tau isoform 2N4R; physiological tau
# [7] = molecular target: T7, human tau protein isoform 2N3R (Homo sapiens, UniProt P10636-5); assay: as above
# T7 construct: human tau, isoform 2N3R (three repeats, two N-terminal inserts); also called three-repeat tau protein isoform 2N3R; full-length three-repeat tau protein
# T7 sequence (P10636 other isoform, or with tags, fused parts or gaps): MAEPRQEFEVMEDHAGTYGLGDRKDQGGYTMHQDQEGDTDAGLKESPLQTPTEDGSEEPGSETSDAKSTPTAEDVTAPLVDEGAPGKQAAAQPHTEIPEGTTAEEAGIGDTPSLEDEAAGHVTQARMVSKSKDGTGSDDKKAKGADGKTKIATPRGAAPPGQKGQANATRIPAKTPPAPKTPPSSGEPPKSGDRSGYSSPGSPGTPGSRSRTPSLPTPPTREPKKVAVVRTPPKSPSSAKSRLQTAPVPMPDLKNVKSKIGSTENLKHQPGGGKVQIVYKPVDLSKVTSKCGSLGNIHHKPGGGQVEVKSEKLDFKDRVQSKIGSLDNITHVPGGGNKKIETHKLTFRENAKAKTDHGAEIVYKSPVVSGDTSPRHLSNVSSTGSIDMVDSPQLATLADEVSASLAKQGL
# T5 sequence (P10636 other isoform, or with tags, fused parts or gaps): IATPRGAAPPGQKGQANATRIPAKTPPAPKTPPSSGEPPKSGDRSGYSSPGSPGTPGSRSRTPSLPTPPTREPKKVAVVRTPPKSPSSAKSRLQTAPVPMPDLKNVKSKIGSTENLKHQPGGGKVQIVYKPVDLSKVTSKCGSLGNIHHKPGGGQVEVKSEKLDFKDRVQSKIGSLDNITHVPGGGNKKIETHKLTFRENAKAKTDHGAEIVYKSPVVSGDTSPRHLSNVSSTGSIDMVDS
# T4 sequence (P10636 468-708): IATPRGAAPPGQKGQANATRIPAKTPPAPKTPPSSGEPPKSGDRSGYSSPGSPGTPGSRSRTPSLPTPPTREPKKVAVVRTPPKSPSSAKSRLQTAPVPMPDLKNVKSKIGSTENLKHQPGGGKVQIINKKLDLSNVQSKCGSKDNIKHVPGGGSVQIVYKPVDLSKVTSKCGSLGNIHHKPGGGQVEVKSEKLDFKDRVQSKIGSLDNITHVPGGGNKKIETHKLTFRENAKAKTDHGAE
# T6 sequence (P10636 other isoform, or with tags, fused parts or gaps): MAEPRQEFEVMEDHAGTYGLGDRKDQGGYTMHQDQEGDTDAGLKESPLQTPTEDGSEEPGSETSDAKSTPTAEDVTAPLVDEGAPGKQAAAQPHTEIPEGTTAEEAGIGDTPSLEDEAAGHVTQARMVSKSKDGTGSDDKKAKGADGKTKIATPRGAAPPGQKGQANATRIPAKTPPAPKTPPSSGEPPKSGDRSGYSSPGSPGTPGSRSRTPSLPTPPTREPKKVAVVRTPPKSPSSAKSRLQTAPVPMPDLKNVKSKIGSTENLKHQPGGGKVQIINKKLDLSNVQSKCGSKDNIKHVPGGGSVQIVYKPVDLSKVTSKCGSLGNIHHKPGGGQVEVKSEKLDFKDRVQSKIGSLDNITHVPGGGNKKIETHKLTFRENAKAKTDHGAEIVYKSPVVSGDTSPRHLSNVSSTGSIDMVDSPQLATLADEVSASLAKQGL
binder,measurement,setting,value
B1,binding result,[1],binds
same,binding result,[2],binds
same,binding result,[3],binds
same,fold affinity against full-length tau isoform 2N4R,[4],7 fold
same,koff,[4],0.04 s⁻¹
same,kon,[4],2.9e+06 M⁻¹ s⁻¹
same,fold affinity against full-length tau isoform 2N3R,[5],25 fold
same,koff,[5],0.08 s⁻¹
same,kon,[5],150000 M⁻¹ s⁻¹
same,koff,[6],0.04 s⁻¹
same,kon,[6],440000 M⁻¹ s⁻¹
same,koff,[7],0.4 s⁻¹
same,kon,[7],28000 M⁻¹ s⁻¹
